In patent US20240190950A1 (SHANGHAI JIAO TONG UNIVERSITY, published 2024):

T1: FGFR1 (protein used in the ForteBio and ELISA assays) (human, UniProt P11362 22-376, limits assumed)
T1 construct: That entry still holds signal peptide, transmembrane and kinase parts; also called human FGFR1
T1 sequence: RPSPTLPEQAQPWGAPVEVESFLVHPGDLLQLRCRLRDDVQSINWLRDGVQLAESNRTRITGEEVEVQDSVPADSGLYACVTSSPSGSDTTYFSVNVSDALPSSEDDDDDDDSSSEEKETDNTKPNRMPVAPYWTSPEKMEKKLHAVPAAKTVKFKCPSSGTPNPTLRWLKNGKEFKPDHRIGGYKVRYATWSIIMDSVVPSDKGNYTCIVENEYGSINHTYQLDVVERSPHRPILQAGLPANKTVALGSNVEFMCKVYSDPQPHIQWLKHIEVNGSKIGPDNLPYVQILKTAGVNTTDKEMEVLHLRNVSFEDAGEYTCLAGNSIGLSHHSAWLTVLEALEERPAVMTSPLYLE

B1: Gremlin1 (human gremlin 1, hGREM1) (ligand)
chain: KKKGSQGAIPPPDKAQHNDSEQTQSPQQPGSRNRGRGQGRGTAMPGEEVLESSQEALHVTERKYLKRDWCKTQPLKQTIHEEGCNSRTIINRFCYGQCNSFYIPRHIRKEEGSFQSCSFCKPKKFTTMMVTLNCPELQPPTKKKRVTRVKQCRCISIDLD
modifications: biotin label in the ForteBio assay (site not stated)
notes: also called Gremlin1-biotin; Flag-tagged GREM1
B2: 14E3 (antibody, IgG2a, V domains shown)
VH: QIQLVQSGPELKKPGETVKISCKTSGSTFTTYGMAWMKQAPGKGLTWMGWINTLSGEPTYADDFKGRFAFSLKTSANTAYLQINNLKNEDAATYFCAREPMDYWGQGTSVIVSS
VL: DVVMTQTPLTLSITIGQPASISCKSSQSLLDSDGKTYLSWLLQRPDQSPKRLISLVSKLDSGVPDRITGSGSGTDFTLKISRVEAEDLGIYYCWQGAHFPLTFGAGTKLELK
notes: also called anti-human-Gremlin1 (14E3); anti-human-GREM1 antibody 14E3

What was measured:
[1] = target: T1, FGFR1 (protein used in the ForteBio and …); assay: ForteBio (the text calls it surface plasmon resonance analysis); Gremlin1-biotin immobilized on streptavidin sensor, FGFR1 in solution
Description: We next asked the mechanism leading to the activation of the FGFR1/MEK/ERK signaling pathway by GREM1. We performed surface plasmon resonance analysis (Fortebio) to first assess whether GREM1 can bind to FGFR1. […] Computer simulation imitated that GREM1 binds to the extracellular domain of FGFR1 as a dimer (FIG. 9B). […] In addition, the activation of GREM1 on the FGFR1/MEK/ERK signaling pathway could be attenuated by adding excessive amount of soluble FGFR1 (FIG. 9G).

[2] = target: B1; assay: ELISA, antibody titrated on Gremlin1 (Ab is anti-human-Gremlin1 14E3)

| Kd [1] [nM] | EC50 (read off the curve) [2] [ng/mL] | Binder |
| --- | --- | --- |
| 10.6 |  | B1 |
|  | ~10 | B2 |
